Measured values: the Human Domainome abundance scans (Beltran et al. 2025)
± gives the uncertainty stated by the source.

B1: Protein C-ets-1, residues 55 to 135; numbered along this chain, P14921 (parent)
chain: GFTKEQQRLGIPKDPRQWTETHVRDWVMWAVNEFSLKGVDFQKFCMNGAALCALGKDCFLELAPDFVGDILWEHLEILQKE

Variants of: B1
Assay: abundance fitness (aPCA) (normalised: wild type 0, dead -1); higher = more abundant; growth selection in yeast, the domain comes from the species named
Settings: Homo sapiens

Variant	abundance fitness
GFTKEQQRLGIPKDPRQWTETHVRDWVMWAVNEFSLKGVDFQKFCMNGAALVALGKDCFLELAPDFVGDILWEHLEILQKE [C52V]	-0.066 ± 0.027
GFTKEQQRLGIPKDPRQWTETHVRDWVMWAVNEFSLKGVDFQKFCMNGAALMALGKDCFLELAPDFVGDILWEHLEILQKE [C52M]	-0.079 ± 0.04
GFTKEQQRLGIPKDPRQWTETHVRDWVMWAVNEFSLKGVDFQKFCMNGAALFALGKDCFLELAPDFVGDILWEHLEILQKE [C52F]	-0.325 ± 0.056
GFTKEQQRLGIPKDPRQWTETHVRDWVMWAVNEFSLKGVDFQKFCMNGAALNALGKDCFLELAPDFVGDILWEHLEILQKE [C52N]	-0.497 ± 0.075
GFTKEQQRLGIPKDPRQWTETHVRDWVMWAVNEFSLKGVDFQKFCMNGAALPALGKDCFLELAPDFVGDILWEHLEILQKE [C52P]	-0.896 ± 0.073
GFTKEQQRLGIPKDPRQWTETHVRDWVMWAVNEFSLKGVDFQKFCMNGAALAALGKDCFLELAPDFVGDILWEHLEILQKE [C52A]	-0.303 ± 0.029
GFTKEQQRLGIPKDPRQWTETHVRDWVMWAVNEFSLKGVDFQKFCMNGAALSALGKDCFLELAPDFVGDILWEHLEILQKE [C52S]	-0.185 ± 0.033
GFTKEQQRLGIPKDPRQWTETHVRDWVMWAVNEFSLKGVDFQKFCMNGAALKALGKDCFLELAPDFVGDILWEHLEILQKE [C52K]	-0.627 ± 0.052
GFTKEQQRLGIPKDPRQWTETHVRDWVMWAVNEFSLKGVDFQKFCMNGAALHALGKDCFLELAPDFVGDILWEHLEILQKE [C52H]	-0.534 ± 0.079
GFTKEQQRLGIPKDPRQWTETHVRDWVMWAVNEFSLKGVDFQKFCMNGAALRALGKDCFLELAPDFVGDILWEHLEILQKE [C52R]	-0.564 ± 0.034
GFTKEQQRLGIPKDPRQWTETHVRDWVMWAVNEFSLKGVDFQKFCMNGAALGALGKDCFLELAPDFVGDILWEHLEILQKE [C52G]	-0.562 ± 0.024
GFTKEQQRLGIPKDPRQWTETHVRDWVMWAVNEFSLKGVDFQKFCMNGAALQALGKDCFLELAPDFVGDILWEHLEILQKE [C52Q]	-0.494 ± 0.062
GFTKEQQRLGIPKDPRQWTETHVRDWVMWAVNEFSLKGVDFQKFCMNGAALEALGKDCFLELAPDFVGDILWEHLEILQKE [C52E]	-0.542 ± 0.038
GFTKEQQRLGIPKDPRQWTETHVRDWVMWAVNEFSLKGVDFQKFCMNGAALIALGKDCFLELAPDFVGDILWEHLEILQKE [C52I]	-0.029 ± 0.052
GFTKEQQRLGIPKDPRQWTETHVRDWVMWAVNEFSLKGVDFQKFCMNGARLCALGKDCFLELAPDFVGDILWEHLEILQKE [A50R]	-0.063 ± 0.034
GFTKEQQRLGIPKDPRQWTETHVRDWVMWAVNEFSLKGVDFQKFCMNGAGLCALGKDCFLELAPDFVGDILWEHLEILQKE [A50G]	-0.202 ± 0.029
GFTKEQQRLGIPKDPRQWTETHVRDWVMWAVNEFSLKGVDFQKFCMNGAILCALGKDCFLELAPDFVGDILWEHLEILQKE [A50I]	-0.236 ± 0.078
GFTKEQQRLGIPKDPRQWTETHVRDWVMWAVNEFSLKGVDFQKFCMNGAHLCALGKDCFLELAPDFVGDILWEHLEILQKE [A50H]	-0.076 ± 0.079
GFTKEQQRLGIPKDPRQWTETHVRDWVMWAVNEFSLKGVDFQKFCMNGATLCALGKDCFLELAPDFVGDILWEHLEILQKE [A50T]	-0.026 ± 0.041
GFTKEQQRLGIPKDPRQWTETHVRDWVMWAVNEFSLKGVDFQKFCMNGAMLCALGKDCFLELAPDFVGDILWEHLEILQKE [A50M]	-0.007 ± 0.067
GFTKEQQRLGIPKDPRQWTETHVRDWVMWAVNEFSLKGVDFQKFCMNGAFLCALGKDCFLELAPDFVGDILWEHLEILQKE [A50F]	-0.375 ± 0.084
GFTKEQQRLGIPKDPRQWTETHVRDWVMWAVNEFSLKGVDFQKFCMNGAPLCALGKDCFLELAPDFVGDILWEHLEILQKE [A50P]	-0.811 ± 0.072
GFTKEQQRLGIPKDPRQWTETHVRDWVMWAVNEFSLKGVDFQKFCMNGAELCALGKDCFLELAPDFVGDILWEHLEILQKE [A50E]	0.02 ± 0.04

Variant	abundance fitness
GFTKEQQRLGIPKDPRQWTETHVRDWVMWAVNEFSLKGVDFQKFCMNGAYLCALGKDCFLELAPDFVGDILWEHLEILQKE [A50Y]	-0.351 ± 0.1
GFTKEQQRLGIPKDPRQWTETHVRDWVMWAVNEFSLKGVDFQKFCMNGAQLCALGKDCFLELAPDFVGDILWEHLEILQKE [A50Q]	0.015 ± 0.058
GFTKEQQRLGIPKDPRQWTETHVRDWVMWAVNEFSLKGVDFQKFCMNGACLCALGKDCFLELAPDFVGDILWEHLEILQKE [A50C]	-0.116 ± 0.073
GFTKEQQRLGIPKDPRQWTETHVRDWVMWAVNEFSLKGVDFQKFCMNGAKLCALGKDCFLELAPDFVGDILWEHLEILQKE [A50K]	0.042 ± 0.075
GFTKEQQRLGIPKDPRQWTETHVRDWVMWAVNEFSLKGVDFQKFCMNGALLCALGKDCFLELAPDFVGDILWEHLEILQKE [A50L]	-0.202 ± 0.034
GFTKEQQRLGIPKDPRQWTETHVRDWVMWAVNEFSLKGVDFQKFCMNGADLCALGKDCFLELAPDFVGDILWEHLEILQKE [A50D]	0.026 ± 0.05
GFTKEQQRLGIPKDPRQWTETHVRDWVMWAVNEFSLKGVDFQKFCMNGAWLCALGKDCFLELAPDFVGDILWEHLEILQKE [A50W]	-0.548 ± 0.056
GFTKEQQRLGIPKDPRQWTETHVRDWVMWAVNEFSLKGVDFQKFCMNGRALCALGKDCFLELAPDFVGDILWEHLEILQKE [A49R]	-0.013 ± 0.02
GFTKEQQRLGIPKDPRQWTETHVRDWVMWAVNEFSLKGVDFQKFCMNGTALCALGKDCFLELAPDFVGDILWEHLEILQKE [A49T]	-0.048 ± 0.028
GFTKEQQRLGIPKDPRQWTETHVRDWVMWAVNEFSLKGVDFQKFCMNGIALCALGKDCFLELAPDFVGDILWEHLEILQKE [A49I]	-0.237 ± 0.04
GFTKEQQRLGIPKDPRQWTETHVRDWVMWAVNEFSLKGVDFQKFCMNGPALCALGKDCFLELAPDFVGDILWEHLEILQKE [A49P]	-0.137 ± 0.028
GFTKEQQRLGIPKDPRQWTETHVRDWVMWAVNEFSLKGVDFQKFCMNGCALCALGKDCFLELAPDFVGDILWEHLEILQKE [A49C]	-0.372 ± 0.036
GFTKEQQRLGIPKDPRQWTETHVRDWVMWAVNEFSLKGVDFQKFCMNGFALCALGKDCFLELAPDFVGDILWEHLEILQKE [A49F]	-0.339 ± 0.039
GFTKEQQRLGIPKDPRQWTETHVRDWVMWAVNEFSLKGVDFQKFCMNGLALCALGKDCFLELAPDFVGDILWEHLEILQKE [A49L]	-0.132 ± 0.025
GFTKEQQRLGIPKDPRQWTETHVRDWVMWAVNEFSLKGVDFQKFCMNGNALCALGKDCFLELAPDFVGDILWEHLEILQKE [A49N]	-0.139 ± 0.053
GFTKEQQRLGIPKDPRQWTETHVRDWVMWAVNEFSLKGVDFQKFCMNGKALCALGKDCFLELAPDFVGDILWEHLEILQKE [A49K]	0.085 ± 0.05
GFTKEQQRLGIPKDPRQWTETHVRDWVMWAVNEFSLKGVDFQKFCMNGHALCALGKDCFLELAPDFVGDILWEHLEILQKE [A49H]	-0.058 ± 0.048
GFTKEQQRLGIPKDPRQWTETHVRDWVMWAVNEFSLKGVDFQKFCMNGYALCALGKDCFLELAPDFVGDILWEHLEILQKE [A49Y]	-0.262 ± 0.043
GFTKEQQRLGIPKDPRQWTETHVRDWVMWAVNEFSLKGVDFQKFCMNGDALCALGKDCFLELAPDFVGDILWEHLEILQKE [A49D]	-0.04 ± 0.032
GFTKEQQRLGIPKDPRQWTETHVRDWVMWAVNEFSLKGVDFQKFCMNGGALCALGKDCFLELAPDFVGDILWEHLEILQKE [A49G]	-0.126 ± 0.022
GFTKEQQRLGIPKDPRQWTETHVRDWVMWAVNEFSLKGVDFQKFCMNGEALCALGKDCFLELAPDFVGDILWEHLEILQKE [A49E]	0.02 ± 0.03
GFTKEQQRLGIPKDPRQWTETHVRDWVMWAVNEFSLKGVDFQKFCMNGMALCALGKDCFLELAPDFVGDILWEHLEILQKE [A49M]	-0.055 ± 0.032
GFTKEQQRLGIPKDPRQWTETHVRDWVMWAVNEFSLKGVDFQKFCMNGQALCALGKDCFLELAPDFVGDILWEHLEILQKE [A49Q]	-0.011 ± 0.037

Variant	abundance fitness
GFTKEQQRLGIPKDPRQWTETHVRDWVMWAVNEFSLKGVDFQKFCMNGVALCALGKDCFLELAPDFVGDILWEHLEILQKE [A49V]	-0.162 ± 0.023
GFTKEQQRLGIPKDPRQWTETHVRDWVMWAVNEFSLKGVDFQKFCMNGWALCALGKDCFLELAPDFVGDILWEHLEILQKE [A49W]	-0.3 ± 0.032
GFTKEQQRLGIPKDPRQWTETHVRDWVMWAVNEFSLKGVDFQKFCMNGAADCALGKDCFLELAPDFVGDILWEHLEILQKE [L51D]	-0.97 ± 0.073
GFTKEQQRLGIPKDPRQWTETHVRDWVMWAVNEFSLKGVDFQKFCMNGAATCALGKDCFLELAPDFVGDILWEHLEILQKE [L51T]	-0.961 ± 0.11
GFTKEQQRLGIPKDPRQWTETHVRDWVMWAVNEFSLKGVDFQKFCMNGAAICALGKDCFLELAPDFVGDILWEHLEILQKE [L51I]	-0.15 ± 0.057
GFTKEQQRLGIPKDPRQWTETHVRDWVMWAVNEFSLKGVDFQKFCMNGAACCALGKDCFLELAPDFVGDILWEHLEILQKE [L51C]	-0.803 ± 0.12
GFTKEQQRLGIPKDPRQWTETHVRDWVMWAVNEFSLKGVDFQKFCMNGAAYCALGKDCFLELAPDFVGDILWEHLEILQKE [L51Y]	-0.94 ± 0.21
GFTKEQQRLGIPKDPRQWTETHVRDWVMWAVNEFSLKGVDFQKFCMNGAAPCALGKDCFLELAPDFVGDILWEHLEILQKE [L51P]	-0.794 ± 0.059
GFTKEQQRLGIPKDPRQWTETHVRDWVMWAVNEFSLKGVDFQKFCMNGAAMCALGKDCFLELAPDFVGDILWEHLEILQKE [L51M]	-0.11 ± 0.05
GFTKEQQRLGIPKDPRQWTETHVRDWVMWAVNEFSLKGVDFQKFCMNGAANCALGKDCFLELAPDFVGDILWEHLEILQKE [L51N]	-0.718 ± 0.17
GFTKEQQRLGIPKDPRQWTETHVRDWVMWAVNEFSLKGVDFQKFCMNGAAHCALGKDCFLELAPDFVGDILWEHLEILQKE [L51H]	-0.813 ± 0.14
GFTKEQQRLGIPKDPRQWTETHVRDWVMWAVNEFSLKGVDFQKFCMNGAARCALGKDCFLELAPDFVGDILWEHLEILQKE [L51R]	-0.788 ± 0.051
GFTKEQQRLGIPKDPRQWTETHVRDWVMWAVNEFSLKGVDFQKFCMNGAAFCALGKDCFLELAPDFVGDILWEHLEILQKE [L51F]	-0.894 ± 0.12
GFTKEQQRLGIPKDPRQWTETHVRDWVMWAVNEFSLKGVDFQKFCMNGAAACALGKDCFLELAPDFVGDILWEHLEILQKE [L51A]	-0.847 ± 0.055
GFTKEQQRLGIPKDPRQWTETHVRDWVMWAVNEFSLKGVDFQKFCMNGAAWCALGKDCFLELAPDFVGDILWEHLEILQKE [L51W]	-0.893 ± 0.084
GFTKEQQRLGIPKDPRQWTETHVRDWVMWAVNEFSLKGVDFQKFCMNGAAKCALGKDCFLELAPDFVGDILWEHLEILQKE [L51K]	-1.08 ± 0.15
GFTKEQQRLGIPKDPRQWTETHVRDWVMWAVNEFSLKGVDFQKFCMNGAAECALGKDCFLELAPDFVGDILWEHLEILQKE [L51E]	-0.952 ± 0.093
GFTKEQQRLGIPKDPRQWTETHVRDWVMWAVNEFSLKGVDFQKFCMNGAAGCALGKDCFLELAPDFVGDILWEHLEILQKE [L51G]	-1.03 ± 0.063
GFTKEQQRLGIPKDPRQWTETHVRDWVMWAVNEFSLKGVDFQKFCMNGAAQCALGKDCFLELAPDFVGDILWEHLEILQKE [L51Q]	-0.923 ± 0.11
GFTKEQQRLGIPKDPRQWTETHVRDWVMWAVNEFSLKGVDFQKFCMNSAALCALGKDCFLELAPDFVGDILWEHLEILQKE [G48S]	-0.911 ± 0.066
GFTKEQQRLGIPKDPRQWTETHVRDWVMWAVNEFSLKGVDFQKFCMNWAALCALGKDCFLELAPDFVGDILWEHLEILQKE [G48W]	-0.797 ± 0.11
GFTKEQQRLGIPKDPRQWTETHVRDWVMWAVNEFSLKGVDFQKFCMNVAALCALGKDCFLELAPDFVGDILWEHLEILQKE [G48V]	-0.805 ± 0.073
